Measured values published in publication PMC3085893 (European journal of cell biology, 2011).

Legend:
[1] = biological target: GST-cortactin SH3 domain (UniProt Q14247 492-550); assay: pull-down
[2] = biological target: GST-Src SH3 domain (UniProt P12931 84-145); assay: pull-down

Sequence of GST-cortactin SH3 domain (Q14247 492-550): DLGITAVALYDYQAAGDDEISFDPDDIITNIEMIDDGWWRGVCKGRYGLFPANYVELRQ

B1: GFP-AFAP1L1 (Actin Filament Associated Protein 1 Like 1) (natural protein, human, UniProt Q8TED9 1-768, looked up)
chain: MDRGQVLEQLLPELTGLLSLLDHEYLSDTTLEKKMAVASILQSLQPLPAKEVSYLYVNTADLHSGPSFVESLFEEFDCDLSDLRDMPEDDGEPSKGASPELAKSPRLRNAADLPPPLPNKPPPEDYYEEALPLGPGKSPEYISSHNGCSPSHSIVDGYYEDADSSYPATRVNGELKSSYNDSDAMSSSYESYDEEEEEGKSPQPRHQWPSEEASMHLVRECRICAFLLRKKRFGQWAKQLTVIREDQLLCYKSSKDRQPHLRLALDTCSIIYVPKDSRHKRHELRFTQGATEVLVLALQSREQAEEWLKVIREVSKPVGGAEGVEVPRSPVLLCKLDLDKRLSQEKQTSDSDSVGVGDNCSTLGRRETCDHGKGKKSSLAELKGSMSRAAGRKITRIIGFSKKKTLADDLQTSSTEEEVPCCGYLNVLVNQGWKERWCRLKCNTLYFHKDHMDLRTHVNAIALQGCEVAPGFGPRHPFAFRILRNRQEVAILEASCSEDMGRWLGLLLVEMGSRVTPEALHYDYVDVETLTSIVSAGRNSFLYARSCQNQWPEPRVYDDVPYEKMQDEEPERPTGAQVKRHASSCSEKSHRVDPQVKVKRHASSANQYKYGKNRAEEDARRYLVEKEKLEKEKETIRTELIALRQEKRELKEAIRSSPGAKLKALEEAVATLEAQCRAKEERRIDLELKLVAVKERLQQSLAGGPALGLSVSSKPKSGETANKPQNSVPEQPLPVNCVSELRKRSPSIVASNQGRVLQKAKEWEMKKT
fold increase in the ratio pulled down over GST control [1]: ~9 fold

B2: GFP-AFAP1 (Actin Filament-Associated Protein of 110 kDa) (natural protein, UniProt Q8N556 1-730, looked up)
chain: MEELIVELRLFLELLDHEYLTSTVREKKAVITNILLRIQSSKGFDVKDHAQKQETANSLPAPPQMPLPEIPQPWLPPDSGPPPLPTSSLPEGYYEEAVPLSPGKAPEYITSNYDSDAMSSSYESYDEEEEDGKGKKTRHQWPSEEASMDLVKDAKICAFLLRKKRFGQWTKLLCVIKDTKLLCYKSSKDQQPQMELPLQGCNITYIPKDSKKKKHELKITQQGTDPLVLAVQSKEQAEQWLKVIKEAYSGCSGPVDSECPPPPSSPVHKAELEKKLSSERPSSDGEGVVENGITTCNGKEQVKRKKSSKSEAKGTVSKVTGKKITKIISLGKKKPSTDEQTSSAEEDVPTCGYLNVLSNSRWRERWCRVKDNKLIFHKDRTDLKTHIVSIPLRGCEVIPGLDSKHPLTFRLLRNGQEVAVLEASSSEDMGRWIGILLAETGSSTDPEALHYDYIDVEMSASVIQTAKQTFCFMNRRVISANPYLGGTSNGYAHPSGTALHYDDVPCINGSLKGKKPPVASNGVTGKGKTLSSQPKKADPAAVVKRTGSNAAQYKYGKNRVEADAKRLQTKEEELLKRKEALRNRLAQLRKERKDLRAAIEVNAGRKPQAILEEKLKQLEEECRQKEAERVSLELELTEVKESLKKALAGGVTLGLAIEPKSGTSSPQSPVFRHRTLENSPISSCDTSDTEGPVPVNSAAVLKKSQAAPGSSPCRGHVLRKAKEWELKNGT
fold increase in the ratio pulled down over GST control [2]: 14 fold
